Measurements: article PMC3365488 (Biochemistry, 2012)

Molecular target: T1, CheY complexed with the unlinked CheA P2 domain (E. coli, UniProt P0AE67 1-129; P07363 156-229)
T1 sequence (looked up) 1: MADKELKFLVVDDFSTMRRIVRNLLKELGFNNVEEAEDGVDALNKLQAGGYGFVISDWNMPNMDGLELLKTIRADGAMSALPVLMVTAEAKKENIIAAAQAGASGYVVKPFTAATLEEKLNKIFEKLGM
T1 sequence (looked up) 2: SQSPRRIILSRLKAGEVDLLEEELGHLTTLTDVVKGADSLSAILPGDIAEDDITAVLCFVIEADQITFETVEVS
Test: NMR titration

B1: CheA P1 domain (residues 1-134) (domain or fragment, E. coli, UniProt P07363 1-134, looked up)
chain: MSMDISDFYQTFFDEADELLADMEQHLLVLQPEAPDAEQLNAIFRAAHSIKGGAGTFGFSVLQETTHLMENLLDEARRGEMQLNTDIINLFLETKDIMQEQLDAYKQSQEPDAASFDYICQALRQLALEAKGET
Kd: ~4.5 mM
